In patent US20250051429A1 (Hoffmann-La Roche, published 2025):
Residue numbers refer to the chain shown, from its start. Numbers in names are those of the source.

B1: gantenerumab (antibody, human IgG1, V domains shown)
VH: QVELVESGGGLVQPGGSLRLSCAASGFTFSSYAMSWVRQAPGKGLEWVSAINASGTRTYYADSVKGRFTISRDNSKNTLYLQMNSLRAEDTAVYYCARGKGNTHKPYGYVRYFDVWGQGTLVTVSS
VL: DIVLTQSPATLSLSPGERATLSCRASQSVSSSYLAWYQQKPGQAPRLLIYGASSRATGVPARFSGSGSGTDFTLTISSLEPEDFATYYCLQIYNMPITFGQGTKVEIK
modifications: glycosylation site in heavy chain CDR2 (NAS); Fab glycosylation (CE-SDS) 30-80 %
notes: kappa light chain; also called parent antibody gantenerumab; wt: NAS
B2: mAb 675 (antibody, V domains shown)
VH: QVELVESGGGLVQPGGSLRLSCAASGFTFSSYAMSWVRQAPGKGLEWVSAINATGTRTYYADSVKGRFTISRDNSKNTLYLQMNSLRAEDTAVYYCARGKGSSGYVRYFDVWGQGTLVTVSS
VL: B1 VL
modifications: glycosylation site in heavy chain CDR2 (NAT); Fab glycosylation (CE-SDS) 100 %
notes: Variant of gantenerumab: heavy chain S53T (Kabat) and shortened heavy chain CDR3, wild-type light chain; Only variable domains are tied to the name; also called 142; gantenerumab VH NAT variant with wild-type light chain
B3: mAb 638 (antibody, V domains shown)
VH: B2 VH with N52Q, T54S
VL: B1 VL with M95H
modifications: no Fab glycosylation (CE-SDS 0 %)
notes: Variant of gantenerumab: heavy chain N52Q, shortened heavy chain CDR3, light chain M95H (Kabat)
B4: mAb 651 (antibody, V domains shown)
VH: B2 VH
VL: B1 VL with M95H
modifications: glycosylation site in heavy chain CDR2 (NAT); Fab glycosylation (CE-SDS) 100 %
notes: Variant of gantenerumab: heavy chain S53T, shortened heavy chain CDR3, light chain M95H (Kabat); also called 144
B5: mAb 663 (antibody, V domains shown)
VH: B2 VH with N52Q, T54S
VL: B1 VL
modifications: no Fab glycosylation (CE-SDS 0 %)
notes: Variant of gantenerumab: heavy chain N52Q (Kabat) and shortened heavy chain CDR3, wild-type light chain; also called 143; gantenerumab VH QAS variant with wild-type light chain

What follows are binders tested against T1, human A-beta protein, fibrillar A-beta(1-40) coated for the ELISA (human) (assay: ELISA, antibody on coated fibrillar A-beta(1-40)).
T1 construct: also called Aβ1-40 fibers; fibrillar Aβ
Protocol: Binding of the antibodies to fibrillar Aβ is measured by an ELISA assay. Briefly, AD(1-40) is coated at 7 μg/mL in PBS onto Maxisorb plates for 3 days at 37° C. to produce fibrillar Abeta, and then dried for 3 h at RT. The plate is blocked with 1% CroteinC and 0.1% RSA in PBS (blocking buffer) for 1 h at RT, then washed once with wash buffer. Antibodies or controls are added at concentrations up to 100 nM in blocking buffer and incubated at 4° C. overnight. After 4 wash steps, constructs are detected by addition of anti-human-IgG-HRP (Jackson Immunoresearch) at 1:10,000 dilution in blocking buffer […], followed by 6 washes and incubation in TMB (Sigma). Absorbance is read out at 450 nm after stopping color development with 1 N HCl.

T1 sequence (peptide, as listed by the source): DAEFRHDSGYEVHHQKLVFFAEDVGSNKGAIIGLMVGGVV

Binder | EC50 [nM]
B1 | 0.2
B2 | 0.2
B3 | 0.2
B4 | 4
B5 | 0.2
